US20200332324

Target: T1, E. coli type II fatty acid synthase ACP (AcpP), P0A6A8
T1 chain: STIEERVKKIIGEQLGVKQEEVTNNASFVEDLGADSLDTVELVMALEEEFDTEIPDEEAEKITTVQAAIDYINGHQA

B1: 4'-phosphopantetheinyl transferase Sfp from Bacillus subtilis (protein)
chain: MKIYGIYMDRPLSQEENERFMSFISPEKREKCRRFYHKEDAHRTLLGDVLVRSVISRQYQLDKSDIRFSTQEYGKPCIPDLPDAHFNISHSGRWVICAFDSQPIGIDIEKTKPISLEIAKRFFSKTEYSDLLAKDKDEQTDYFYHLWSMKESFIKQEGKGLSLPLDSFSVRLHQDGQVSIELPDSHSPCYIKTYEVDPGYKMAVCAAHPDFPEDITMVSYEELL
- ACP phosphopantetheinylation with fluorescently labeled CoA (TAMRA-CoA), SDS-PAGE, UV fluorescence: protein extracts from all the recombinant cyanobacteria strains constructed here allowed the conversion of E. coli ACP to its fluorescently labeled derivative
